The values below come from the Immune Epitope Database (IEDB).

Test [1] deals with HLA-A*24:02. Kind of test: IEDB peptide-MHC binding, purified MHC/competitive/fluorescence; ≥ and ≤ were set here for values at or beyond the usual limits of such assays.
Test [2] addresses HLA-B*53:01. Kind of test: IEDB peptide-MHC binding, purified MHC/competitive/radioactivity; filed as Kd, often an IC50 or EC50 that approximates it; ≥ and ≤ were set here for values at or beyond the usual limits of such assays.
Test [3] concerns the target HLA-B*35:01. The description is as above.
The target in test [4] is HLA-B*51:01. Described as above.
Test [5] addresses HLA-B*54:01. The test is described as above.
Test [6] concerns the target HLA-B*07:02. The description is as above.
Test [7] has as its target HLA-B*15:17. The test is described as follows: IEDB peptide-MHC binding, purified MHC/direct/fluorescence; filed as Kd, often an IC50 or EC50 that approximates it; ≥ and ≤ were set here for values at or beyond the usual limits of such assays.
The target in test [8] is HLA-B*58:01. Described as above.
Test [9] addresses HLA-B*57:01. Described as above.
Test [10] addresses HLA-A*02:01. The test is described as follows: IEDB peptide-MHC binding, purified MHC/competitive/fluorescence; ≥ and ≤ were set here for values at or beyond the usual limits of such assays.
In test [11] the target is HLA-B*48:01. Kind of test: IEDB peptide-MHC binding, purified MHC/direct/fluorescence; filed as Kd, often an IC50 or EC50 that approximates it; ≥ and ≤ were set here for values at or beyond the usual limits of such assays.
For test [12], the target named is HLA-B*44:02. Described as above.
For test [13], the target named is HLA-B*27:05. The description is as above.
The target in test [14] is HLA-A*03:01. The test is described as above.
The target of test [15] is HLA-A*02:01. The description is as above. To be noted: source organism: Mammarenavirus juninense.
Test [16] has as its target HLA-B*08:01. Described as above.
Test [17] has as its target HLA-B*46:01. Described as above.
In test [18] the target is HLA-A*31:01. Described as above.
Test [19] addresses HLA-B*07:02. The test is described as above. To be noted: source organism: Mammarenavirus juninense.
The target of test [20] is HLA-B*40:01. Described as above.
The target of test [21] is HLA-B*15:01. The test is described as above. To be noted: source organism: Mammarenavirus juninense.
Test [22] concerns the target HLA-A*01:01. The description is as above.
Test [23] has as its target HLA-B*18:01. The description is as above.
Test [24] addresses HLA-A*26:01. Kind of test: IEDB peptide-MHC binding, purified MHC/competitive/fluorescence; filed as Kd, often an IC50 or EC50 that approximates it; ≥ and ≤ were set here for values at or beyond the usual limits of such assays.
Test [25] concerns the target HLA-B*44:02. The test is described as follows: IEDB peptide-MHC binding, purified MHC/competitive/radioactivity; filed as Kd, often an IC50 or EC50 that approximates it; ≥ and ≤ were set here for values at or beyond the usual limits of such assays.
The target of test [26] is HLA-B*44:03. The description is as above.
Test [27] deals with HLA-A*11:01. Kind of test: IEDB peptide-MHC binding, purified MHC/direct/fluorescence; filed as Kd, often an IC50 or EC50 that approximates it; ≥ and ≤ were set here for values at or beyond the usual limits of such assays. To be noted: source organism: Mycobacterium tuberculosis variant bovis BCG str. Pasteur 1173P2.
For test [28], the target named is HLA-A*69:01. The description is as above. The following applies: source organism: Mycobacterium tuberculosis variant bovis BCG str. Pasteur 1173P2.
The target in test [29] is HLA-B*51:01. The test is described as follows: IEDB peptide-MHC binding, purified MHC/competitive/fluorescence; filed as Kd, often an IC50 or EC50 that approximates it; ≥ and ≤ were set here for values at or beyond the usual limits of such assays. The following applies: source organism: Burkholderia ambifaria AMMD.
Where [30] appears, read: source organism: Vaccinia virus.
[31] abbreviates: source organism: Vaccinia virus WR.
Setting [32] is: source organism: Listeria monocytogenes serotype 4b str. H7858.
Where [33] appears, read: source organism: Mammarenavirus lassaense.
Where [34] appears, read: source organism: SARS coronavirus Tor2.
[35] abbreviates: source organism: Zaire ebolavirus.
The mark [36] stands for this setting: source organism: Sudan ebolavirus.
[37] abbreviates: source organism: Mammarenavirus juninense.
Where [38] appears, read: source organism: Dengue virus 1 Singapore/S275/1990.
Where [39] appears, read: source organism: West Nile virus.
Setting [40] is: source organism: Triticum aestivum.
Setting [41] is: source organism: Dengue virus 4 Philippines/H241/1956.
Setting [42] is: source organism: Mycobacterium tuberculosis variant bovis BCG str. Pasteur 1173P2.
The mark [43] stands for this setting: source organism: Dengue virus 3 Martinique/1243/1999.
Setting [44] is: source organism: Vaccinia virus Copenhagen.
Where [45] appears, read: source organism: Camelpox virus M-96.
[46] abbreviates: source organism: Cryptosporidium parvum.

Sequence RNTTPMMIQ displayed an IC50 in test [1] (setting [30]) of no less than 70.4 µM.

Consider LPPFTQHLL, for which the equilibrium dissociation constant (Kd) in test [2] (setting [31]) was 0.0913 µM; in test [3] (setting [31]) it was 0.24 µM; in [4] (setting [31]) it was 0.0186 µM; in [5] (setting [31]), 3.03 µM; in test [6] (setting [31]), 0.401 µM.

For the sequence TPLHKYCVNL, the Kd in test [2] (setting [31]) was 0.891 µM; in test [3] (setting [31]), 7.36 µM; in [4] (setting [31]) it was no less than 37.1 µM; in test [5] (setting [31]), 4.86 µM; in [6] (setting [31]), 0.0113 µM.

In the case of KSAYPFDEL, the figures for the dissociation constant Kd in test [7] (source organism: Listeria monocytogenes), in [8] (setting [32]) and in test [9] (setting [32]) were 0.134 µM, 0.046 µM and no less than 20 µM, respectively.

On to FPAQPGLTSA, for which the dissociation constant Kd was 2.91 µM in test [2] (setting [33]); 0.051 µM in [3] (setting [33]); no less than 32.3 µM in test [4] (setting [33]); 0.00639 µM in test [5] (setting [33]); 0.0496 µM in [6] (setting [33]).

Regarding YPNSSDLDM, the Kd in test [2] (setting [33]) is 0.0141 µM; in test [3] (setting [33]) it was 0.00823 µM; in test [4] (setting [33]) it was 0.78 µM; in test [5] (setting [33]), no less than 53.9 µM; in test [6] (setting [33]) it was 0.233 µM.

As to LDKITDFHE, the half-inhibitory concentration (IC50) in test [1] (source organism: Variola virus) came out at 24.2 µM.

For NGTLEFTPI, the IC50 stood at 11.1 µM in test [10] (setting [31]) and 23.1 µM in test [1] (setting [31]).

In the case of LPMIIGEPII, the dissociation constant (Kd) was 0.0333 µM in [2] (setting [31]); 0.75 µM in test [3] (setting [31]); 0.456 µM in test [4] (setting [31]); 0.0311 µM in test [5] (setting [31]); 0.00912 µM in [6] (setting [31]).

Turning to IPTNFSISI, the dissociation constant (Kd) in test [2] (setting [34]) worked out at 0.0107 µM; in test [3] (setting [34]) it was 0.0312 µM; in [4] (setting [34]), 0.0571 µM; in test [5] (setting [34]), 0.0499 µM; in test [6] (setting [34]), 0.0641 µM.

Regarding RKHHTKIDS, the IC50 in test [1] (source organism: Variola virus) came to 27.2 µM.

Regarding FFLWVIILF, the concentration for half-maximal inhibition (IC50) in test [10] (setting [35]) came out at 7.45 µM; in test [1] (setting [35]), 53 µM.

For IPYSRVNHA, the Kd in [2] (setting [31]) was 0.177 µM; in [3] (setting [31]) it was 0.0572 µM; in test [4] (setting [31]) it was 0.0232 µM; in test [5] (setting [31]) it was 0.000133 µM; in test [6] (setting [31]), 0.00663 µM.

On to FFVWVIILF, for which, in test [1] (setting [36]), the IC50 was 1.51 µM.

With SPLPSLEYGA, the Kd in test [2] (setting [31]) was 12.4 µM; in test [3] (setting [31]) it was 6 µM; in test [4] (setting [31]), no less than 69.6 µM; in test [5] (setting [31]), 0.000204 µM; in test [6] (setting [31]), 1.64 µM.

With DLKLVDVKL, the Kd in test [11] (setting [37]), in test [8] (setting [37]), in test [12] (setting [37]), in test [13] (setting [37]), in [14] (setting [37]) and in [15] was no less than 20 µM throughout. For the same sequence, the equilibrium dissociation constant (Kd) in test [16] (setting [37]), in [17] (setting [37]), in test [18] (setting [37]), in test [19], in [20] (setting [37]) and in [9] (setting [37]) was no less than 20 µM throughout. In addition, the Kd in [21], in [22] (setting [37]) and in test [23] (setting [37]) was no less than 20 µM in each case.

On to NLEEICQLI, for which the IC50 in test [10] (setting [35]) is 65.1 µM; in test [1] (setting [35]), no less than 90.8 µM.

In the case of DTVHDRTPY, the Kd in [24] (source organism: Influenza A virus (A/Waikato/7/2000(H3N2))) came out at 0.0414 µM.

Turning to GIAWIPYFG, the IC50 is 2.72 µM in test [10] (setting [36]) and no less than 76.2 µM in test [1] (setting [36]).

On to AEHSGASHNI, for which the results for the Kd in test [25] (setting [38]) and in test [26] (setting [38]) were 0.0786 µM and 0.502 µM, respectively.

Consider RVLEMVEDW, for which the Kd stood at 0.0432 µM in [7] (setting [39]) and 0.0879 µM in test [9] (setting [39]).

Take EQLGVPLHL: in test [11] (source organism: Vibrio alginolyticus 12G01), the Kd worked out at 0.488 µM.

Consider FPSQQPYL, for which the Kd in test [2] (setting [40]) was determined as 0.323 µM; in test [3] (setting [40]) it was 0.735 µM; in test [4] (setting [40]), 0.00353 µM; in test [5] (setting [40]) it was 4.33 µM; in [6] (setting [40]), 1.03 µM.

As for LEENMEVEIW, the Kd in test [25] (setting [41]) came to 0.225 µM; in test [26] (setting [41]) it was 0.257 µM.

Take IIRVTSELL: the Kd in test [11] (setting [42]), in [8] (setting [42]), in test [12] (setting [42]), in test [27], in [13] (setting [42]) and in [14] (setting [42]) was no less than 20 µM in each case. In addition, the equilibrium dissociation constant (Kd) in test [16] (setting [42]) was 13 µM; in test [17] (setting [42]), no less than 20 µM; in [18] (setting [42]) it was no less than 20 µM; in [20] (setting [42]), no less than 20 µM; in [9] (setting [42]), no less than 20 µM; in [22] (setting [42]) it was no less than 20 µM. Further, the Kd in [28] and in test [23] (setting [42]) was no less than 20 µM each time.

On to ADMGCVINW, for which the Kd in test [25] (setting [43]) was found to be 0.0928 µM; in test [26] (setting [43]), 0.11 µM.

As to YTYATRGIY, in test [24] (source organism: Yersinia pestis Nepal516), the Kd amounted to 0.0062 µM.

Sequence RQTQSRPIQ had an IC50 in test [1] (setting [35]) of no less than 125 µM.

As to QYVDDANLE, the half-inhibitory concentration (IC50) in test [1] (setting [30]) was no less than 1330 µM.

In the case of LHSLSVETI, the values for the IC50 in test [10] (setting [44]) and in test [1] (setting [44]) were no less than 195 µM and 13 µM, respectively.

On to KSVTKSSSW, for which the Kd is no more than 0.001 µM in [7] (setting [45]), 0.0162 µM in test [8] (setting [45]) and 0.108 µM in test [9] (setting [45]).

For the sequence LPWSSPQLW, in test [29], the Kd was 0.0906 µM.

WRTIMAVLF registered a Kd in test [11] (source organism: dengue virus type 4) of no less than 20 µM.

Take EYLFEVDNL: the results for the half-inhibitory concentration (IC50) in [10] (setting [35]) and in [1] (setting [35]) were 43.7 µM and 0.402 µM, respectively.

Take KACPPGFVF: the Kd in [7] (setting [46]) was 0.143 µM; in test [8] (setting [46]), 0.0177 µM; in [9] (setting [46]), 2.48 µM.
